# Laboratory results: the supplement of paper PMC7877785
# ± gives the uncertainty stated by the source.
# Experiment: self-splicing fitness, log relative to wild type (ln ratio); higher = more splicing; Tetrahymena group I intron in knt gene, E. coli kanamycin selection, DiMSum; sequences stand for … in CUCUCU…GGAGGGAAAAGUUAUCAGGCAUGCACCUGGUAGCUAGUCUUUAAACCAAUAGAUUGCAUCGGUUUAAAAGGCAAGACCGUCAAAUUGCGGGAAAGGGGUCAACAGCCGUUCAGUACCAAGUCUCAGGGGAAACUUUGAGAUGGCCUUGCAAAGGGUAUGGUAAUAAGCUGACGGACAUGGUCCUAACCACGCAGCCAAGUCCUAAGUCAACAGAUCUUCUGUUGAUAUGGAUGCAGUUCACAGACUAAAUGUCGGUCGGGGAAGAUGUAUUCUUCUCAUAAGAUAUAGUCGGACCUCUCCUUAAUGGGAGCUAGCGGAUGAAGUGAUGCAACACUGGAGCCGCUGGGAACUAAUUUGUAUGCGAAAGUAUAUUGAUUAGUUUUGGAGUACUCGUGGUCG
# How it was run: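 A randomised library covering all eight P1ex-region intron nucleotides was built with the intron in the knt kanamycin-resistance gene on pET-22b(+) and held in E. coli BL21(DE3). Cells were grown overnight at 37°C or 30°C on LB agar, with or without 25 μg/mL kanamycin, plus 100 μg/mL carbenicillin, 50 μM IPTG and 0.2% rhamnose, and pooled colonies were amplicon-sequenced on an Illumina HiSeq 2500. DiMSum fitness is the error-weighted combination of wild-type-normalised replicate fold changes, kanamycin versus none.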
Sequence,self-splicing fitness (ln) (30 °C),self-splicing fitness (ln) (37 °C)
CAACAGCAAUAUUACGCGCA,-0.857 ± 0.085,0.0215 ± 0.087
UUCAAGCAAUAUUACGAUGA,-0.963 ± 0.097,0.0199 ± 0.092
AAAUAGCAAUAUUACGAAAC,-3.4 ± 0.27,-1.76 ± 0.18
CCGAAGCAAUAUUACGCUAU,,-2.24 ± 0.25
CUACAGCAAUAUUACGUGCG,-1.75 ± 0.081,-0.715 ± 0.089
ACAGAGCAAUAUUACGUGCU,-4.27 ± 0.37,-2.48 ± 0.41
CACCAGCAAUAUUACGUGUU,-4.11 ± 0.14,-2.67 ± 0.1
GGAAAGCAAUAUUACGAACG,-0.51 ± 0.1,-0.441 ± 0.12
AGGAAGCAAUAUUACGCGAA,-1.83 ± 0.12,-1.38 ± 0.14
GACUAGCAAUAUUACGGGAA,-2.32 ± 0.19,-0.809 ± 0.16
CAGUAGCAAUAUUACGGUUC,-2.7 ± 0.25,-2.53 ± 0.29
GUCAAGCAAUAUUACGCCCU,-0.585 ± 0.16,0.51 ± 0.15
GACAAGCAAUAUUACGCGAC,-1.52 ± 0.15,-1.63 ± 0.19
GUCCAGCAAUAUUACGCUCG,-0.909 ± 0.15,-1.3 ± 0.22
GCUUAGCAAUAUUACGACUC,-0.244 ± 0.15,0.619 ± 0.18
AGCAAGCAAUAUUACGCCAU,-3.14 ± 0.18,-1.63 ± 0.13
CCCGAGCAAUAUUACGUAUA,-2.79 ± 0.17,-2.82 ± 0.26
CCAAAGCAAUAUUACGGAGG,-3.79 ± 0.25,-2.04 ± 0.21
ACUAAGCAAUAUUACGUCGU,-3.51 ± 0.17,-1.16 ± 0.12
GGUUAGCAAUAUUACGUCUC,-0.348 ± 0.15,-0.0912 ± 0.18
GAAUAGCAAUAUUACGUCAA,-2.1 ± 0.14,-1.95 ± 0.13
AGUAAGCAAUAUUACGACAA,-1.35 ± 0.17,-0.886 ± 0.17
AAAGAGCAAUAUUACGGAGU,-3.33 ± 0.2,-3.16 ± 0.26
UUACAGCAAUAUUACGAGGG,-3.1 ± 0.25,-1.62 ± 0.21
GUCGAGCAAUAUUACGUGUA,-3.26 ± 0.2,-2.12 ± 0.19

Sequence,self-splicing fitness (ln) (30 °C),self-splicing fitness (ln) (37 °C)
UGCAAGCAAUAUUACGUGAA,-2.26 ± 0.1,-1.03 ± 0.11
CAUGAGCAAUAUUACGAAUG,-3.67 ± 0.2,-2.33 ± 0.16
UAGGAGCAAUAUUACGUGAA,-1.66 ± 0.34,-1.93 ± 0.34
GUUAAGCAAUAUUACGUUAU,-1.62 ± 0.12,-0.968 ± 0.13
CUUAAGCAAUAUUACGAAUC,-2.97 ± 0.23,
AUGGAGCAAUAUUACGGGUC,-4.63 ± 0.29,-3.52 ± 0.28
GGCUAGCAAUAUUACGAUGU,-1.45 ± 0.084,-0.785 ± 0.083
CGUUAGCAAUAUUACGUCUC,,-1.86 ± 0.35
CCAGAGCAAUAUUACGUUUU,-3.06 ± 0.18,-2.62 ± 0.21
GGGAAGCAAUAUUACGGAUG,-3.55 ± 0.21,-1.15 ± 0.15
GAUGAGCAAUAUUACGCCUA,-1.7 ± 0.29,-0.51 ± 0.26
AUUCAGCAAUAUUACGAUUA,-0.138 ± 0.097,0.146 ± 0.089
UUUCAGCAAUAUUACGAGAC,-2.68 ± 0.36,-3.57 ± 0.46
AGUCAGCAAUAUUACGGAGC,-2.57 ± 0.12,-1.74 ± 0.13
AUUGAGCAAUAUUACGUCCG,-2.58 ± 0.16,-2.91 ± 0.48
UCGUAGCAAUAUUACGACAU,-3.861 ± 0.035,-2.69 ± 0.043
GUGGAGCAAUAUUACGAUAU,-1.83 ± 0.17,-0.975 ± 0.15
GCGUAGCAAUAUUACGAAAA,-2.22 ± 0.41,-1.48 ± 0.25
GCCCAGCAAUAUUACGUGAU,-0.455 ± 0.046,-0.00599 ± 0.065
UGGAAGCAAUAUUACGACGU,-1.62 ± 0.15,-0.761 ± 0.2
UUAAAGCAAUAUUACGUUGA,-0.721 ± 0.066,-0.0751 ± 0.094
CCGCAGCAAUAUUACGGGUA,-4.25 ± 0.42,-2.44 ± 0.22
CGUGAGCAAUAUUACGACGG,-0.058 ± 0.098,0.525 ± 0.11
GUAUAGCAAUAUUACGCACA,-1.11 ± 0.13,0.279 ± 0.16
UUGAAGCAAUAUUACGUGCC,-2.27 ± 0.15,-0.402 ± 0.16

Sequence,self-splicing fitness (ln) (30 °C),self-splicing fitness (ln) (37 °C)
CACAAGCAAUAUUACGGUUC,-4.1 ± 0.22,-2.66 ± 0.19
CGUUAGCAAUAUUACGCAAA,-2.53 ± 0.36,-2.67 ± 0.48
GAUAAGCAAUAUUACGGCGG,-2.27 ± 0.12,-1.32 ± 0.13
CCGAAGCAAUAUUACGCAAG,-1.83 ± 0.17,-1.12 ± 0.17
CCGCAGCAAUAUUACGCCUU,-3.2 ± 0.21,-2.08 ± 0.16
UUAGAGCAAUAUUACGGUAU,-3.84 ± 0.28,-1.36 ± 0.19
GGCCAGCAAUAUUACGUAUA,-3.92 ± 0.26,-2.23 ± 0.2
AUCUAGCAAUAUUACGCUGU,-1.61 ± 0.14,-1.17 ± 0.18
GGCAAGCAAUAUUACGUUAC,-1.39 ± 0.12,-1.5 ± 0.14
UAAUAGCAAUAUUACGUUAU,-2.86 ± 0.21,-1.44 ± 0.19
CCGUAGCAAUAUUACGUAUG,-0.772 ± 0.082,0.203 ± 0.12
CAGGAGCAAUAUUACGACUA,0.224 ± 0.31,-0.98 ± 0.34
CAAGAGCAAUAUUACGAGGG,-3.17 ± 0.16,-2.75 ± 0.2
GACGAGCAAUAUUACGUAGC,-4.54 ± 0.41,-2.33 ± 0.25
CGAUAGCAAUAUUACGCCCG,-1.39 ± 0.18,-1.44 ± 0.25
GGUCAGCAAUAUUACGAUUA,-0.0947 ± 0.092,-0.0575 ± 0.092
UUGGAGCAAUAUUACGCUCU,-4.19 ± 0.39,
ACAGAGCAAUAUUACGGCUG,-0.984 ± 0.096,-0.796 ± 0.13
AUGAAGCAAUAUUACGCAUA,-0.0747 ± 0.071,-0.57 ± 0.082
CGUGAGCAAUAUUACGCACA,-1.32 ± 0.16,-0.702 ± 0.18
CUCGAGCAAUAUUACGUAAC,-1.53 ± 0.28,
CCUCAGCAAUAUUACGCGUA,-2.71 ± 0.21,-3.37 ± 0.28
ACAUAGCAAUAUUACGGUCC,-1.91 ± 0.087,-1.77 ± 0.11
GUAAAGCAAUAUUACGCGUC,-1.05 ± 0.12,-1.3 ± 0.14
GUUCAGCAAUAUUACGUAUG,-2.03 ± 0.1,-0.968 ± 0.099

Sequence,self-splicing fitness (ln) (30 °C),self-splicing fitness (ln) (37 °C)
UGGAAGCAAUAUUACGCUCU,,-1.45 ± 0.32
AAGCAGCAAUAUUACGUGUG,-2.67 ± 0.083,-1.92 ± 0.11
GGGUAGCAAUAUUACGUUUU,-1.31 ± 0.063,-0.826 ± 0.1
AAGGAGCAAUAUUACGUGUA,,-2.29 ± 0.27
GCGCAGCAAUAUUACGAUUA,-1.02 ± 0.13,-1.48 ± 0.13
ACUAAGCAAUAUUACGAUUC,-2.12 ± 0.091,-0.397 ± 0.11
AACGAGCAAUAUUACGCUUU,-3.9 ± 0.17,-2.31 ± 0.14
AAAUAGCAAUAUUACGAGAU,-2.1 ± 0.16,-1.47 ± 0.21
UAAAAGCAAUAUUACGAUGG,-0.953 ± 0.087,-0.592 ± 0.11
UCGUAGCAAUAUUACGCCUU,-2.21 ± 0.13,-0.619 ± 0.13
UACAAGCAAUAUUACGUUAG,-3.02 ± 0.11,-2.11 ± 0.097
UACUAGCAAUAUUACGAGCA,-0.343 ± 0.12,0.447 ± 0.15
CCCUAGCAAUAUUACGGCUG,-2.46 ± 0.28,-1.38 ± 0.3
AAGAAGCAAUAUUACGUGUC,-3.38 ± 0.15,-2.09 ± 0.17
UCUAAGCAAUAUUACGCGUU,-4.04 ± 0.34,-2.77 ± 0.38
AUUGAGCAAUAUUACGAGCA,-3.01 ± 0.47,-1.93 ± 0.42
CUCAAGCAAUAUUACGAGCU,-4.33 ± 0.3,-4.08 ± 0.39
CUCUAGCAAUAUUACGUCGC,,-3.28 ± 0.47
AAGGAGCAAUAUUACGGCGG,-4.57 ± 0.3,-2.12 ± 0.32
CAUGAGCAAUAUUACGGGCA,-2.43 ± 0.18,-2.21 ± 0.28
CCAUAGCAAUAUUACGACAC,-2.94 ± 0.29,-1.99 ± 0.37
CACAAGCAAUAUUACGCGAA,-3.43 ± 0.17,-2.44 ± 0.14
